From paper PMC8584343, “Probing the Structural Dynamics of the Activation Gate of KcsA Using Homo-FRET Measurements” (International Journal of Molecular Sciences, 2021) come the findings set out here.

A word on the stoichiometry N: it is a count of units in the complex or per binding partner.

Series [1] concerns the molecule itself. Put plainly: SDS-PAGE; oligomeric status of the purified protein checked by SDS-PAGE (13.5%).
Series [2] concerns the molecule itself. Kind of series: FRET or BRET; homo-FRET among TMR dyes on C116 of different subunits, read by steady-state and time-resolved fluorescence anisotropy; detergent-solubilised protein, 6 µM (monomer based), 5 mM DDM, 200 mM KCl (also RbCl or NaCl), pH 3.5-7.0, 25 °C; D:P 0.05 to 0.60.

B1: TMR-labeled G116C W26, 68, 87, 113F KcsA (full-length) (natural protein, S. lividans, UniProt P0A334 1-160, looked up)
chain: MPPMLSGLLARLVKLLLGRHGSALHFRAAGAATVLLVIVLLAGSYLAVLAERGAPGAQLITYPRALWFSVETATTVGYGDLYPVTLFGRLVAVVVMVAGITSFGLVTAALATFFVCREQERRGHFVRHSEKAAEEAYTRTTRALHERFDRLERMLDDNRR
modifications: tetramethylrhodamine-5-maleimide (TMR) conjugated to cysteine 116; final dye-to-protein molar ratio D:P 0.05 to 0.60, so not every subunit carries a dye
notes: KcsA potassium channel from S. lividans, full-length subunit, with four of the five Trp mutated to Phe (W67 left) and G116C for labelling; Homotetrameric channel; Plasmids pQE-60 and pQE-1 are named for G116C W67 and G116C WT; also called TMR-labeled G116C W67 KcsA; TMR conjugated G116C W67 KcsA; source: E. coli M15 (pRep4), purified (IMAC), labelled with tetramethylrhodamine-5-maleimide, …
In the case of B1, the “stoichiometry N” value in series [1] stood at 4.

B2: C-terminal truncated (Δ125) TMR-labeled G116C W67 KcsA (domain or fragment, S. lividans, UniProt P0A334 1-124, looked up)
chain: MPPMLSGLLARLVKLLLGRHGSALHFRAAGAATVLLVIVLLAGSYLAVLAERGAPGAQLITYPRALWFSVETATTVGYGDLYPVTLFGRLVAVVVMVAGITSFGLVTAALATFFVCREQERRGH
modifications: tetramethylrhodamine-5-maleimide (TMR) conjugated to cysteine 116; D:P = 0.60
notes: KcsA potassium channel from S. lividans after removal of the C-terminal domain (amino acids 125–160) by chymotrypsin; W67 background with G116C; The limit 124 follows from the stated removal of amino acids 125–160; If the His tag stood at the C-terminus it would be lost with the cleaved fragment; also called truncated protein; proteolytically cleaved TMR-labeled G116C W67 KcsA
On to B2, for which the binding result in series [2] is given as “binds”.
